Test results as given in IntAct's records for PubMed 26635368.

molecular target: spre1_human SPRED1 (UniProt Q7Z699)
Sequence (Q7Z699 whole entry): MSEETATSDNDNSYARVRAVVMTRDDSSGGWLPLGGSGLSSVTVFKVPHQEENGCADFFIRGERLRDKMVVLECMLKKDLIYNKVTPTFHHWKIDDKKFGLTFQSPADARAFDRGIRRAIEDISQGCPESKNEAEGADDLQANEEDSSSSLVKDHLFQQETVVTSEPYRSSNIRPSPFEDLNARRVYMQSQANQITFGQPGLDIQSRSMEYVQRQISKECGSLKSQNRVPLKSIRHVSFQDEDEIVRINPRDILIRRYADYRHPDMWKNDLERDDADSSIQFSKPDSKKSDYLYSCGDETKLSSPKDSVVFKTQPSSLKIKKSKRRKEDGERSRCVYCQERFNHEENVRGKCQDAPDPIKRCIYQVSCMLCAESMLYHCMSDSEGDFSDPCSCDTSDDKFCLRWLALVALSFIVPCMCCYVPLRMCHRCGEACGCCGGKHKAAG

| effect of a mutation on the interaction | Substance |
| --- | --- |
| decreasing interaction strength | Neurofibromin (Homo sapiens), P21359 L1511P |
| with no effect | Neurofibromin (Homo sapiens), P21359 R1276P |
| decreasing interaction strength | Neurofibromin (Homo sapiens), P21359 D1217G |

molecular target: spre1_human SPRED1 (UniProt Q7Z699); remark: another data set of the same source

| effect of a mutation on the interaction | Substance |
| --- | --- |
| with no effect | Neurofibromin (Homo sapiens), P21359 L1211R |
| disrupting interaction strength | Neurofibromin (Homo sapiens), P21359 D1217G |
| decreasing interaction strength | Neurofibromin (Homo sapiens), P21359 R1204L |
| decreasing interaction strength | Neurofibromin (Homo sapiens), P21359 L1208W |

Second part, the substance before the results:

| Substance | effect of a mutation on the interaction |
| --- | --- |
| Neurofibromin (Homo sapiens), P21359 R1204G | with no effect |
| Neurofibromin (Homo sapiens), P21359 A1202S | with no effect |
| Neurofibromin (Homo sapiens), P21359 Q1515R | with no effect |
| Neurofibromin (Homo sapiens), P21359 R1204W | decreasing interaction strength |
| Neurofibromin (Homo sapiens), P21359 G1519E | with no effect |
